Measurements: US20250215089A1 (HARBOUR BIOMED SHANGHAI, published 2025)
Several values for one entry are separate records, joined by “and”; a condition that tells them apart may be missing. Identical values can stand only once.

Columns and labels:
human CD40 [1] = target: T1, human CD40 (human, UniProt P25942 21-277); experiment: FACS, Raji cells
T1 construct: whole, on cells; also called hCD40; TNFRSF5
Procedure: (§1) The cells were incubated at 4° C. for 1 hours in the dark. After the incubation, the cells were rinsed twice by adding pre-chilled PBS at 100 μL/well, and centrifuged at 500 g at 4° C. for 5 minutes, and the supernatant was discarded. Then, a fluorescent secondary antibody (goat anti-human IgG (H+L) secondary antibody, Alexa Fluor® 488 conjugate, Invitrogen, #A11013, 1:1000 dilution) was added at 100 μL/well, and the cells were incubated at 4° C. for 30 minutes in the dark. The cells were washed twice with pre-chilled PBS at 200 μL/well, and centrifuged at 500 g at 4° C. for 5 minutes, and the supernatant was discarded. Finally, the cells were resuspended in pre-chilled PBS at 200 μL/well. The fluorescence signal values were read using a BD FACS CANTOII flow cytometer or ACEA NovoCyte flow cytometer, and the data were processed and analyzed using FlowJo v10 software (FlowJo, LLC).

human CD40 [2] = target: T1, human CD40; experiment: FACS, CHO-K1/hCD40 cells
Procedure: as §1

human CD40 [3] = target: T1, human CD40; experiment: cell-based or functional assay
cynomolgus monkey CD40 = target: T2, cynomolgus monkey CD40 (cynomolgus monkey); experiment: FACS, CHO-K1/cyCD40 cells
T2 construct: whole, on cells; also called cyCD40
Procedure: as §1

cynomolgus monkey PD-L1 = target: T3, cynomolgus monkey PD-L1 (cynomolgus monkey); experiment: FACS, CHO-K1/cyPD-L1 cells
T3 construct: whole, on cells; also called cyPD-L1
Procedure: (§2) Specifically, the cells expressing PD-L1 were digested and resuspended in PBS buffer containing 2% BSA. The cells were adjusted to a cell density of 1×10⁶ cells/mL, respectively. The cells were seeded in a 96-well V-bottom plate (Corning, #3894) at 100 μL/well, and the antibody to be tested at 2×final concentration with 4-fold concentration gradient dilution was then added at 100 μL/well. The cells were incubated at 4° C. for 2 hours in the dark. After the incubation, the cells were rinsed twice by adding pre-chilled PBS containing 2% BSA at 100 μL/well, and centrifuged at 500 g at 4° C. for 5 minutes, and the supernatant was discarded. […] The cells were washed twice by adding pre-chilled PBS containing 2% BSA at 100 µL/well, and centrifuged at 500 g at 4° C. for 5 minutes, and the supernatant was discarded. Finally, the cells were resuspended in pre-chilled PBS buffer containing 2% BSA at 200 μL/well. The fluorescence signal values were read using a BD FACS CANTOII flow cytometer or ACEA NovoCyte flow cytometer, and the data were processed and analyzed using FlowJo v10 software (FlowJo, LLC).

human PD-L1 [4] = target: T4, human PD-L1 (human, UniProt Q9NZQ7 19-290); experiment: cell-based or functional assay
T4 sequence (Q9NZQ7 19-290): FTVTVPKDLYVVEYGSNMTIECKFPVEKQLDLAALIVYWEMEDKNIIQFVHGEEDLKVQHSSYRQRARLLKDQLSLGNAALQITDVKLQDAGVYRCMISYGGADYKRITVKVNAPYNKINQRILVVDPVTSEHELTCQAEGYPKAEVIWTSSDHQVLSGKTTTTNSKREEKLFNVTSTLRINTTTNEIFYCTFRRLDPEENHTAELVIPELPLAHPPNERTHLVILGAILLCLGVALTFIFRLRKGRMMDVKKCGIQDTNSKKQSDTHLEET

human PD-L1 [5] = target: T4, human PD-L1; experiment: FACS, CHO-K1/hPD-L1 cells
Procedure: as §2

human PD-L1 [6] = target: T4, human PD-L1; experiment: FACS, NCI-H226 cells
Procedure: as §2

human CD40 [7] = target: T1, human CD40; experiment: FACS, Raji cells; remark: listed apart in the source
Procedure: as §1
Data processing and graphical analysis were performed using GraphPad Prism 8 software. The binding curve of the antibody to the target cell and parameters, such as EC₅₀ value were obtained by four-parameter nonlinear fitting.

T1 sequence (P25942 21-277): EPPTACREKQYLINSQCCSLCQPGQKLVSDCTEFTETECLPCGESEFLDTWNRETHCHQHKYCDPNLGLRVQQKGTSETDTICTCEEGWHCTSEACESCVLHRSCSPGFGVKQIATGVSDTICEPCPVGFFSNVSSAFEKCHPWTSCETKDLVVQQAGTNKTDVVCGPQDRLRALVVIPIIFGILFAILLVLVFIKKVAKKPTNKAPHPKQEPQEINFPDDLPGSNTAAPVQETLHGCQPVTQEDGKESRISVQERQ

Row | Binder | EC50 (human CD40 [1]) [nM] | Maximum MFI (human CD40 [1]) [MFI] | EC50 (human CD40 [2]) [nM] | Maximum MFI (human CD40 [2]) [MFI] | EC50, HEK293-hCD40-NFκB reporter, + CHO-K1 (human CD40 [3]) [nM] | EC50, HEK293-hCD40-NFκB reporter, + CHO-K1/hPD-L1 (human CD40 [3]) [nM] | Maximum (RLU), HEK293-hCD40-NFκB reporter, + CHO-K1 (human CD40 [3]) [RLU] | Maximum (RLU), HEK293-hCD40-NFκB reporter, + CHO-K1/hPD-L1 (human CD40 [3]) [RLU] | EC50 (cynomolgus monkey CD40) [nM] | Maximum MFI (cynomolgus monkey CD40) [MFI] | EC50 (cynomolgus monkey PD-L1) [nM] | Maximum MFI (cynomolgus monkey PD-L1) [MFI] | EC50, Jurkat-NFAT-hPD1 reporter (human PD-L1 [4]) | Maximum (RLU), Jurkat-NFAT-hPD1 reporter (human PD-L1 [4]) [RLU] | EC50 (human PD-L1 [5]) [nM] | Maximum MFI (human PD-L1 [5]) [MFI] | EC50 (human PD-L1 [6]) [nM] | Maximum MFI (human PD-L1 [6]) [MFI] | EC50 (human CD40 [7]) [nM] | Maximum MFI (human CD40 [7]) [MFI]
1 | PR007273 (bispecific antibody, human IgG1, kappa, VH of PR006245 (PD-L1) - GS_5 - heavy chain of CD40 IgG PR006495; human IgG1 L234A/L235A/G237A; also called PD-L1×CD40) heavy: QVQLVESGGGVVQPGMSLRLSCAASGFDFSSYGMYWVRQAPGKGQEWVASIRYTGTEKHYADSVKGRFTISRDNSKNTLYLEMNSLRVEDTAVYYCAKNRAIFGVVPDASDIRGQGTMVTVSSGGGGSQVQLVQSGAEVKKPGASVKVSCKASGYTFAGYYMYWVRQAPGQGLEWMGWINPDSGAPTYAQKFQGRVTMTRDTSISTAYMELSRLRSDDTAVYYCAREKIYYGSGNYYPSFDYWGQGTLVTVSSASTKGPSVFPLAPSSKSTSGGTAALGCLVKDYFPEPVTVSWNSGALTSGVHTFPAVLQSSGLYSLSSVVTVPSSSLGTQTYICNVNHKPSNTKVDKKVEPKSCDKTHTCPPCPAPEAAGAPSVFLFPPKPKDTLMISRTPEVTCVVVDVSHEDPEVKFNWYVDGVEVHNAKTKPREEQYNSTYRVVSVLTVLHQDWLNGKEYKCKVSNKALPAPIEKTISKAKGQPREPQVYTLPPSREEMTKNQVSLTCLVKGFYPSDIAVEWESNGQPENNYKTTPPVLDSDGSFFLYSKLTVDKSRWQQGNVFSCSVMHEALHNHYTQKSLSLSPGK light: DIQLTQSPSFLSASVGDRVTITCRASQGISSYLAWYQQKPGKAPKLLIYAASTLQSGVPSRFSGSGSGTEFTLTISSLQPEDFATYYCQQLASYPWTFGQGTKVEIKRTVAAPSVFIFPPSDEQLKSGTASVVCLLNNFYPREAKVQWKVDNALQSGNSQESVTEQDSKDSTYSLSSTLTLSKADYEKHKVYACEVTHQGLSSPVTKSFNRGEC | 1.43 | 7580 | 2.05 | 14300 | 0.238 | 0.0598 | 199000 | 333000 | 4.2 | 71300 | 0.89 | 4620 | 0.109 nM | 2520 | 1.39 | 19800 | 0.773 | 914 | – | –
2 | PR007619 (bispecific antibody, human IgG1, kappa, VH of PR006246 (PD-L1) - GS_3 - heavy chain of CD40 IgG PR006504; human IgG1 L234A/L235A/G237A; also called PD-L1×CD40) heavy: QVQLVESGGGVVQPGMSLRLSCAASGFDFSSYGMYWVRQAPGKGQEWVASIRYTGTEKHYADSVKGRFTISRDNSKNTLYLEMNSLRVEDTAVYYCAKNRAIFGVIPDDSDIRGQGTMVTVSSGGSQVQLVQSGAEVKKPGASVKVSCKASGYTFAGYYMYWVRQAPGQGLEWMGWINPDSGAPTYAQKFQGRVTMTRDTSISTAYMELSRLRSDDTAVYYCAREKIYYGSGNYYPSFDYWGQGTLVTVSSASTKGPSVFPLAPSSKSTSGGTAALGCLVKDYFPEPVTVSWNSGALTSGVHTFPAVLQSSGLYSLSSVVTVPSSSLGTQTYICNVNHKPSNTKVDKKVEPKSCDKTHTCPPCPAPEAAGAPSVFLFPPKPKDTLMISRTPEVTCVVVDVSHEDPEVKFNWYVDGVEVHNAKTKPREEQYNSTYRVVSVLTVLHQDWLNGKEYKCKVSNKALPAPIEKTISKAKGQPREPQVYTLPPSREEMTKNQVSLTCLVKGFYPSDIAVEWESNGQPENNYKTTPPVLDSDGSFFLYSKLTVDKSRWQQGNVFSCSVMHEALHNHYTQKSLSLSPGK light: DIQLTQSPSFLSASVGDRVTITCRASQGISSYLAWYQQKPGKAPKLLIYAASTLQSGVPSRFSGSGSGTEFTLTISSLQPEDFATYYCQQLVSYPWTFGQGTKVEIKRTVAAPSVFIFPPSDEQLKSGTASVVCLLNNFYPREAKVQWKVDNALQSGNSQESVTEQDSKDSTYSLSSTLTLSKADYEKHKVYACEVTHQGLSSPVTKSFNRGEC | 1.26 | 6790 | 2.5 | 17700 | 0.334 | 0.0312 | 3880 | 4780 | 1.77 | 51300 | 0.629 | 4820 | 0.122 nM and 0.309 nM | – | 1.02 | 20100 | 0.366 | 914 | – | –
3 | PR006504 (antibody, human IgG1, kappa, V domains shown, Variant of PR003379, L: N92V; human IgG1 L234A, L235A, G237A) VH: QVQLVQSGAEVKKPGASVKVSCKASGYTFAGYYMYWVRQAPGQGLEWMGWINPDSGAPTYAQKFQGRVTMTRDTSISTAYMELSRLRSDDTAVYYCAREKIYYGSGNYYPSFDYWGQGTLVTVSS VL: DIQLTQSPSFLSASVGDRVTITCRASQGISSYLAWYQQKPGKAPKLLIYAASTLQSGVPSRFSGSGSGTEFTLTISSLQPEDFATYYCQQLVSYPWTFGQGTKVEIKR | – | – | – | – | – | – | – | – | – | – | – | – | – | – | – | – | – | – | 0.35 | 12200
